Test results taken from patent US20160185856A1 (INSERM INSTITUT NATIONAL DE LA SANTE ET DE LA RECHERCHE …, published 2016).

Experiments:
CLDN7 = biological target: T1, CLDN7 (UniProt O95471 1-211, limits assumed); assay: FACS on parental SW480 cells, which express CLDN7
T1 construct: whole, on cells; It is endogenous in the human SW480 cell line
T1 sequence (looked up): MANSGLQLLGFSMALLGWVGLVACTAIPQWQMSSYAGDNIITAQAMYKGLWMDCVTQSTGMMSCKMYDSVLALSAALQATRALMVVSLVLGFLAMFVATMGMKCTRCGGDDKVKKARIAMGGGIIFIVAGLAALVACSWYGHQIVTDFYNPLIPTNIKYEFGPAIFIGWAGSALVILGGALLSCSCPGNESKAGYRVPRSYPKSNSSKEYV
Description: (§1) A). Cell lysates derived from SW480 or CLDN-transfected SW480 were tested by Western-Blotting. B) FACS histograms of the binding 6F6C3 mAb (10 μg/mL-gray histogram) or control without 6F6C3 (dashed histogram) or irrelevant antibody 35A7 (black histogram) to the different CLDNs.
(§2) After transitory tranfection on SW480 cells of human cDNA clone of CLDN8 (sc320974, Origene technologies, USA) and murine cDNA clone of CLDN1 (IRAVp968A105D, LifeScience), we analysed by FACs cross-reactivity of 6F6C3 mAb.

CLDN8 = biological target: T2, CLDN8 (human, UniProt P56748 1-225); assay: FACS on SW480 cells transiently transfected with human CLDN8
T2 construct: whole, on cells; also called human CLDN8
T2 sequence (looked up): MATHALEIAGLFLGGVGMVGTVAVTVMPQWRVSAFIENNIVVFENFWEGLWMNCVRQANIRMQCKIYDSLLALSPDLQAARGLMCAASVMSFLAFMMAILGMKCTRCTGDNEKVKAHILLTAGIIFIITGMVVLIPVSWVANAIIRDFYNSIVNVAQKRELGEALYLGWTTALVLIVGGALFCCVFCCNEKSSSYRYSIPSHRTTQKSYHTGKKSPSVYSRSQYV
Description: as §1, §2

murine CLDN1 = biological target: T3, murine CLDN1 (murine, UniProt O88551 1-211); assay: FACS on SW480 cells transiently transfected with murine CLDN1
T3 construct: whole, on cells; also called mCLDN1
T3 sequence (looked up): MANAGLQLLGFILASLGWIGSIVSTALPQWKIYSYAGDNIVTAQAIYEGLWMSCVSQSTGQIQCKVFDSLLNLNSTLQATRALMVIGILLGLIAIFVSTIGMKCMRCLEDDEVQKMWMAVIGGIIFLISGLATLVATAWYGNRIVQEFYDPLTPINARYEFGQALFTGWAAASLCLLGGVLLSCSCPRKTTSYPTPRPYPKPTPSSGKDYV
Description: as §1, §2

Measured: binding result

B1: 6F6C3 mAb (antibody, V domains shown)
VH: QIQLVQSGPELKKPGETVRISCKASGYTFTTSGMQWLQKMPGKGLKWIGWINTHFGEPKYAEDFKGRFAFSLETSASTAYLQISNLKNEDTATYFCAGAGYYGSRYFDVWGAGTTVTVSS
VL: DIVMTQSQKFMSTSVGDRVSITCKASQNVGTAVAWYQQKPGQSPKLLIYSASNRYTGVPDRFTGSGSGTDFTLTISNMQSEDLADYFCQQYSSYPLTFGGGTKLEIK
notes: Murine hybridoma antibody; Used as purified mAb or as hybridoma supernatant; also called mAb6F6C3; murine anti-CLDN1 antibody (6F6C3)
no binding (tested: 10 µg/mL): all assays above
